Assay results as given in the supplement of paper PMC5998384.

Assays:
HeLa Kyoto [1] = assay: solubility in G1/S (NP-40 vs SDS abundance) (log2 ratio); higher = more soluble; details: cell cycle stage: G1/S
HeLa Kyoto [2] = assay: melting temperature (median over replicates), in situ; higher = more thermally stable
HeLa Kyoto [3] = assay: solubility change mitosis vs G1/S (difference of NP-40 vs SDS log2 ratios) (log2 ratio difference); higher = more soluble in mitosis
HeLa Kyoto [4] = assay: thermal stability score vs G1/S (z-score of summed log2 fold changes over temperatures); higher = more thermally stable than in G1/S
[5] = cell cycle stage: early G1 (4.5 h after nocodazole release)
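Wherever melting temperature (median over replicates), in situ is given: HeLa Kyoto cells synchronized by double thymidine or nocodazole block, proteins quantified by TMT10plex mass spectrometry, three independent biological replicates.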
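Wherever solubility change mitosis vs G1/S (difference of NP-40 vs SDS log2 ratios) is given: synchronized HeLa Kyoto cells (double thymidine block for G1/S, nocodazole release for mitosis), protein amounts in NP-40 versus SDS lysates quantified by mass spectrometry, three biological replicates.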
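Wherever solubility in G1/S (NP-40 vs SDS abundance) is given: HeLa Kyoto cells arrested at G1/S by double thymidine block, proteins quantified by TMT10plex mass spectrometry in mild NP-40 versus SDS extracts, three biological replicates.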
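Wherever thermal stability score vs G1/S (z-score of summed log2 fold changes over temperatures) is given: synchronized HeLa Kyoto cells, proteins quantified by TMT10plex mass spectrometry, three biological replicates, mitosis taken 0.5 h after nocodazole release, G1/S directly after double thymidine block.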

Row | Substance | solubility in G1/S (log2) (HeLa Kyoto [1]) | melting temperature (HeLa Kyoto [2]; cell cycle stage: G1/S) [°C] | melting temperature (HeLa Kyoto [2]; cell cycle stage: mitosis) [°C] | solubility change mitosis (log2) (HeLa Kyoto [3]) | thermal stability score (HeLa Kyoto [4]; [5]) | thermal stability score (HeLa Kyoto [4]; cell cycle stage: mitosis)
1 | MSSTLAKIAEIEAEMARTQKNKATAHHLGLLKARLAKLRRELITPKGGGGGGPGEGFDVAKTGDARIGFVGFPSVGKSTLLSNLAGVYSEVAAYEFTTLTTVPGVIRYKGAKIQLLDLPGIIEGAKDGKGRGRQVIAVARTCNLILIVLDVLKPLGHKKIIENELEGFGIRLNSKPPNIGFKKKDKGGINLTATCPQSELDAETVKSILAEYKIHNADVTLRSDATADDLIDVVEGNRVYIPCIYVLNKIDQISIEELDIIYKVPHCVPISAHHRWNFDDLLEKIWDYLKLVRIYTKPKGQLPDYTSPVVLPYSRTTVEDFCMKIHKNLIKEFKYALVWGLSVKHNPQKVGKDHTLEDEDVIQIVKK [DRG1] | 0.118 | 53.8 | 53.4 | -0.0219 | -0.58 | -2.04
2 | MTRHGKNCTAGAVYTYHEKKKDTAASGYGTQNIRLSRDAVKDFDCCCLSLQPCHDPVVTPDGYLYEREAILEYILHQKKEIARQMKAYEKQRGTRREEQKELQRAASQDHVRGFLEKESAIVSRPLNPFTAKALSGTSPDDVQPGPSVGPPSKDKDKVLPSFWIPSLTPEAKATKLEKPSRTVTCPMSGKPLRMSDLTPVHFTPLDSSVDRVGLITRSERYVCAVTRDSLSNATPCAVLRPSGAVVTLECVEKLIRKDMVDPVTGDKLTDRDIIVLQRGGTGFAGSGVKLQAEKSRPVMQA [NOSIP] | 0.262 | 45.8 | 47.8 | -0.163 | 4.16 | 6.51
3 | MSGRGAGGFPLPPLSPGGGAVAAALGAPPPPAGPGMLPGPALRGPGPAGGVGGPGAAAFRPMGPAGPAAQYQRPGMSPGNRMPMAGLQVGPPAGSPFGAAAPLRPGMPPTMMDPFRKRLLVPQAQPPMPAQRRGLKRRKMADKVLPQRIRELVPESQAYMDLLAFERKLDQTIARKRMEIQEAIKKPLTQKRKLRIYISNTFSPSKAEGDSAGTAGTPGGTPAGDKVASWELRVEGKLLDDPSKQKRKFSSFFKSLVIELDKELYGPDNHLVEWHRMPTTQETDGFQVKRPGDLNVKCTLLLMLDHQPPQYKLDPRLARLLGVHTQTRAAIMQALWLYIKHNQLQDGHEREYINCNRYFRQIFSCGRLRFSEIPMKLAGLLQHPDPIVINHVISVDPNDQKKTACYDIDVEVDDPLKAQMSNFLASTTNQQEIASLDVKIHETIESINQLKTQRDFMLSFSTDPQDFIQEWLRSQRRDLKIITDVIGNPEEERRAAFYHQPWAQEAVGRHIFAKVQQRRQELEQVLGIRLT [SMARCD2] | 0.445 | 48 | 49.2 | 0.00253 | 0.352 | 1.15
4 | MAARRGALIVLEGVDRAGKSTQSRKLVEALCAAGHRAELLRFPERSTEIGKLLSSYLQKKSDVEDHSVHLLFSANRWEQVPLIKEKLSQGVTLVVDRYAFSGVAFTGAKENFSLDWCKQPDVGLPKPDLVLFLQLQLADAAKRGAFGHERYENGAFQERALRCFHQLMKDTTLNWKMVDASKSIEAVHEDIRVLSEDAIRTATEKPLGELWK [DTYMK] | -0.0236 | 56.9 | 54.4 | 0.00796 | -8.56 | -6.57
5 | MARNAEKAMTALARFRQAQLEEGKVKERRPFLASECTELPKAEKWRRQIIGEISKKVAQIQNAGLGEFRIRDLNDEINKLLREKGHWEVRIKELGGPDYGKVGPKMLDHEGKEVPGNRGYKYFGAAKDLPGVRELFEKEPLPPPRKTRAELMKAIDFEYYGYLDEDDGVIVPLEQEYEKKLRAELVEKWKAEREARLARGEKEEEEEEEEEINIYAVTEEESDEEGSQEKGGDDSQQKFIAHVPVPSQQEIEEALVRRKKMELLQKYASETLQAQSEEARRLLGY [ISY1] | 0.128 | 46.7 | 51.2 | 0.254 | -2.75 | -1.6
6 | HECTD1 | -0.212 | 50.4 | 50.4 | -0.16 | 0.479 | -0.0167
7 | MSDLLLLGLIGGLTLLLLLTLLAFAGYSGLLAGVEVSAGSPPIRNVTVAYKFHMGLYGETGRLFTESCSISPKLRSIAVYYDNPHMVPPDKCRCAVGSILSEGEESPSPELIDLYQKFGFKVFSFPAPSHVVTATFPYTTILSIWLATRRVHPALDTYIKERKLCAYPRLEIYQEDQIHFMCPLARQGDFYVPEMKETEWKWRGLVEAIDTQVDGTGADTMSDTSSVSLEVSPGSRETSAATLSPGASSRGWDDGDTRSEHSYSESGASGSSFEELDLEGEGPLGESRLDPGTEPLGTTKWLWEPTAPEKGKE [TEX264] | -0.0622 | 51.2 | 51.2 | -0.257 | 0.0754 | -0.347
